The results in this text go back to patent US20250320295A1 (INHIBRX BIOSCIENCES, published 2025).

One test has as its target T1, IL-2 receptor (human, UniProt P01589 22-272; P14784 27-551; P31785 23-369).
T1 sequence (looked up) 1: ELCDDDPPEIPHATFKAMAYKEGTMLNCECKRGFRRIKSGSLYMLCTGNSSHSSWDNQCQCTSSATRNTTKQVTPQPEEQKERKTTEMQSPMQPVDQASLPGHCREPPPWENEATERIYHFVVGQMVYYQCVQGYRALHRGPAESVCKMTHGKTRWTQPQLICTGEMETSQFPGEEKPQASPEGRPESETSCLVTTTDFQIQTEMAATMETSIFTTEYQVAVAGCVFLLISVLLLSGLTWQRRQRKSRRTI
T1 sequence (looked up) 2: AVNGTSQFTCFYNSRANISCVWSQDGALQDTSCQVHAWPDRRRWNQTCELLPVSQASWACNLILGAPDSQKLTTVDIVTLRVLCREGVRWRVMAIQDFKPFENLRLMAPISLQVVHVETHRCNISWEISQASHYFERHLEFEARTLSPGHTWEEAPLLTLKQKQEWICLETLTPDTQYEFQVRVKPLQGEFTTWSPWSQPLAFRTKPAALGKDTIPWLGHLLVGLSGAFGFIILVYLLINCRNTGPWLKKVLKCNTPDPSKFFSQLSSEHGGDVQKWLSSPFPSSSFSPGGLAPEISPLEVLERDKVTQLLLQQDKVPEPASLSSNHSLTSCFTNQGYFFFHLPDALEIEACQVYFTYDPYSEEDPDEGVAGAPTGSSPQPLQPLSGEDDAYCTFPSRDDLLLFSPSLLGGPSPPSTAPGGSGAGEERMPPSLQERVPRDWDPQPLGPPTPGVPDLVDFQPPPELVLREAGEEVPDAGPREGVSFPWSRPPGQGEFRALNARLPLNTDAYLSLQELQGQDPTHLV
T1 sequence (looked up) 3: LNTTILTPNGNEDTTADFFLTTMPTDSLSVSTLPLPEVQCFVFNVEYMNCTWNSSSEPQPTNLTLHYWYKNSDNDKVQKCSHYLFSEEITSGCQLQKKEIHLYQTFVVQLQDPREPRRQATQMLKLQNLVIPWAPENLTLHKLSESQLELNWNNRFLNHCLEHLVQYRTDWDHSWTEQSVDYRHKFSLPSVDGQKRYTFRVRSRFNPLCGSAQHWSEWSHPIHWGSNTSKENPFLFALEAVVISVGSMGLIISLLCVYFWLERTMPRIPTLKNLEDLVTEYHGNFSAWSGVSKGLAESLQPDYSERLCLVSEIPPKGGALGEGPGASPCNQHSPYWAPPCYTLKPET
Kind of test: cell-based or functional assay.

Test [1] deals with T2, Cynomolgus monkey CD8a (cynomolgus monkey).
T2 construct: whole, on cells; On transfected HEK293F cells (full length) or natively on cynomolgus PBMC T cells; also called cynomolgus CD8a-FL; cynomolgus monkey CD8α
Nature of the test: flow cytometry on CD8 T cells (PI- CD3+ CD4-) within cynomolgus monkey PBMC, fluorescent anti-human IgG secondary, MFI at 647 nm. The method, then:
Binding of four polypeptides comprising a humanized CD8a-binding VHH domain fused to an xELL fc region was assessed by flow cytometry on isolated human T cells and on isolated human or cynomolgus monkey peripheral blood mononuclear cells (PBMC). The isolated cells were plated in a 96-well plate at 200,000 cells per well for cynomolgus monkey PBMC, and 100,000 cells per well for human T cells in FACS buffer (PBS, 1% BSA, 0.1% NaN₃, pH 7.4). […] FACS buffer alone was used as a secondary antibody-only control. Polypeptide dilutions were added to an equal volume of cells, and assay plates were incubated for 30 minutes at 4° C. After washing twice with 150 μL of FACS buffer per well, the cells were resuspended in FACS buffer with a fluorescently labeled anti-human IgG antibody diluted 1:1000 to detect CD8α binding, fluorescently labeled anti-CD3 antibody (clone SP34.2, 1:50, for PBMC preparations only), and fluorescently labeled anti-CD4 antibody (clone OKT4, 1:100). Propidium iodide (PI) was added at 1:2000 to distinguish live cells from dead cells. Assay plates were incubated at 4° C. for 30 minutes. After one additional wash with 150 μL of FACS buffer CD8α binding was detected by flow cytometry on PI−(CD3+) CD4− cells. Binding was measured on these cell populations as mean fluorescence intensity (MFI) at 647 nm. […] The data were plotted and analyzed using GraphPad Prism analysis software. […]
For orientation: In flow cytometry, cells or beads pass a laser one at a time.

Test [2] has as its target T2, Cynomolgus monkey CD8a. Nature of the test: flow cytometry, cynomolgus PBMC, PI-CD3+CD4- gate. How it is done: Binding of four polypeptides comprising a humanized CD8a-binding VHH domain fused to an xELL fc region was assessed by flow cytometry on isolated human T cells and on isolated human or cynomolgus monkey peripheral blood mononuclear cells (PBMC). The isolated cells were plated in a 96-well plate at 200,000 cells per well for cynomolgus monkey PBMC, and 100,000 cells per well for human T cells in FACS buffer (PBS, 1% BSA, 0.1% NaN₃, pH 7.4). […] FACS buffer alone was used as a secondary antibody-only control. Polypeptide dilutions were added to an equal volume of cells, and assay plates were incubated for 30 minutes at 4° C. After washing twice with 150 μL of FACS buffer per well, the cells were resuspended in FACS buffer with a fluorescently labeled anti-human IgG antibody diluted 1:1000 to detect CD8α binding, fluorescently labeled anti-CD3 antibody (clone SP34.2, 1:50, for PBMC preparations only), and fluorescently labeled anti-CD4 antibody (clone OKT4, 1:100). Propidium iodide (PI) was added at 1:2000 to distinguish live cells from dead cells. Assay plates were incubated at 4° C. for 30 minutes. After one additional wash with 150 μL of FACS buffer CD8α binding was detected by flow cytometry on PI−(CD3+) CD4− cells. Binding was measured on these cell populations as mean fluorescence intensity (MFI) at 647 nm. Flow cytometric detection was performed on an ACEA Biosciences Novocyte-Quanteon Flow Cytometer. The data were plotted and analyzed using GraphPad Prism analysis software. The results are shown in Table 12 and 13 and in FIGS. 10A-D.

For test [3], the target named is T3, Human CD8a (human, UniProt P01732 22-235).
T3 construct: also called CD8α; human CD8a-FL
T3 sequence (P01732 22-235): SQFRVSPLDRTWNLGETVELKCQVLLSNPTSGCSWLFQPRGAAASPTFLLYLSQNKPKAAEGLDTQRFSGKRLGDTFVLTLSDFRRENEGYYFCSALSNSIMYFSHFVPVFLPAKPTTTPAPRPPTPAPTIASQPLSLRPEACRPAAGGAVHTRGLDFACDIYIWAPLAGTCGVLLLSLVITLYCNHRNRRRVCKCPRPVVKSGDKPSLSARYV
Kind of test: flow cytometry, isolated human T cells, CD4- gate, anti-human Fc detection. How it is done:
FACS buffer with no polypeptide was used as a secondary antibody-only control. Polypeptide dilutions were added to an equal volume of cells, and assay plates were incubated for 30 minutes at 4° C. […] Assay plates were incubated at 4° C. for 20 minutes. […] The data was plotted and analyzed using GraphPad Prism analysis software. Flow cytometric detection was performed on an Intellicyt iQue Plus.

In test [4] the target is T3, Human CD8a. Nature of the test: flow cytometry, isolated human T cells, CD3+CD4- gate. How it is done:
(§1) Binding of parental and two humanized CD8a-binding polypeptides described above was assessed by flow cytometry on isolated human T cells and on isolated cynomolgus monkey PBMC. The isolated cells were plated in a 96-well plate at 200,000 cells per well for cynomolgus monkey PBMC, and 50,000 cells per well for human T cells in FACS buffer (PBS, 1% BSA, 0.1% NaN₃, pH 7.4). […] FACS buffer alone was used as a secondary antibody-only control. Polypeptide dilutions were added to an equal volume of cells, and assay plates were incubated for 30 minutes at 4° C. After washing twice with 150 μL of FACS buffer per well, the cells were resuspended in FACS buffer with fluorescently-labeled anti-human antibody diluted 1:1000 to detect CD8α binding, and fluorescently labeled anti-CD3 antibody (clone SP34.2) diluted 1:40, and anti-CD4 antibody (clone OKT4) diluted 1:100. Assay plates were incubated at 4° C. for 20 minutes. After one additional wash with 150 μL of FACS buffer, CD8α binding was detected by flow cytometry on CD3+CD4− cells. Binding was measured on these cell populations as mean fluorescence at 647 nm. The data was plotted and analyzed using GraphPad Prism analysis software. Flow cytometric detection was performed on an ACEA Biosciences Novocyte-Quanteon Flow Cytometer. The results are shown in Table 6 and 7 and in FIGS. 4A-B.

In test [5] the target is T2, Cynomolgus monkey CD8a. Kind of test: flow cytometry, HEK293F cells transfected with full-length cynomolgus CD8a (GFP+ gate). How it is done:
(§2) Binding of parental and two of the humanized CD8a-binding polypeptides described above was assessed by flow cytometry on transfected HEK293F cells. The HEK293F cells were transiently transfected with a plasmid encoding full length human or cynomolgus monkey CD8α followed by an IRES and GFP. The transfected cells were plated in a 96-well plate at 30,000 cells per well in FACS buffer (PBS, 1% BSA, 0.1% NaN₃, pH 7.4). Test polypeptides were then diluted to 2× the final concentration of 500 nM and 3-, 4-, and 5-fold serial dilutions were made. FACS buffer with no polypeptide was used as a secondary antibody-only control. Test polypeptides were added to an equal volume of cells, and assay plates were incubated for 30 minutes at 4° C. After washing twice with 150 μL of FACS buffer per well, the cells were resuspended in FACS buffer with fluorescently-labeled anti-human Fc antibody diluted 1:2000. Assay plates were incubated at 4° C. for 20 minutes. After one additional wash with 150 μL of FACS buffer, bound polypeptide was detected by flow cytometry. Flow cytometric detection was performed on an Intellicyt iQue Plus. CD8a-expressing transfected cells were gated as GFP positive, and polypeptide binding was measured as median fluorescence at 647 nm. The data was plotted and analyzed using GraphPad Prism analysis software.

Test [6] addresses T3, Human CD8a. Kind of test: flow cytometry, HEK293F cells transfected with full-length human CD8a (GFP+ gate). How it is done:
as §2

Test [7] concerns the target T2, Cynomolgus monkey CD8a. Kind of test: flow cytometry, cynomolgus PBMC, CD3+CD4- gate. The method, then: as §1

B1: hzB7v31-xELL-KiH Fc-IL-2 mutant (Fc fusion)
chain 1: QVQLVQSGGGEVQPGGSLRLSCAASGFTFDDYAMSWVRQAPGKGLEWVSTITWDAGGTYYAAPVKGRFTISRDNAKNTVYLQMSSLRAEDTAVYYCAKGSPELQYDTWGQGTLVTVKPDKTHTCPPCPAPGGPSVFLFPPKPKDTLMISRTPEVTCVVVDVSHEDPEVKFNWYVDGVEVHNAKTKPREEQYNSTYRVVSVLTVLHQDWLNGKEYKCKVSNKALPAPIEKTISKAKGQPREPQVCTLPPSRDELTKNQVSLSCAVKGFYPSDIAVEWESNGQPENNYKTTPPVLDSDGSFFLVSKLTVDKSRWQQGNVFSCSVMHEALHNRYTQKSLSLSPGK
chain 2: QVQLVQSGGGEVQPGGSLRLSCAASGFTFDDYAMSWVRQAPGKGLEWVSTITWDAGGTYYAAPVKGRFTISRDNAKNTVYLQMSSLRAEDTAVYYCAKGSPELQYDTWGQGTLVTVKPDKTHTCPPCPAPGGPSVFLFPPKPKDTLMISRTPEVTCVVVDVSHEDPEVKFNWYVDGVEVHNAKTKPREEQYNSTYRVVSVLTVLHQDWLNGKEYKCKVSNKALPAPIEKTISKAKGQPREPQVYTLPPCRDELTKNQVSLWCLVKGFYPSDIAVEWESNGQPENNYKTTPPVLDSDGSFFLYSKLTVDKSRWQQGNVFSCSVMHEALHNHYTQKSLSLSPG
Consider B1, for which the “EC50 of pSTAT5 induction in human CD8 T cells” value with IL-2 receptor is under 30 pM.

B2: hzB7v31-xELL-Fc (Fc fusion)
chain: QVQLVQSGGGEVQPGGSLRLSCAASGFTFDDYAMSWVRQAPGKGLEWVSTITWDAGGTYYAAPVKGRFTISRDNAKNTVYLQMSSLRAEDTAVYYCAKGSPELQYDTWGQGTLVTVKPDKTHTCPPCPAPGGPSVFLFPPKPKDTLMISRTPEVTCVVVDVSHEDPEVKFNWYVDGVEVHNAKTKPREEQYNSTYRVVSVLTVLHQDWLNGKEYKCKVSNKALPAPIEKTISKAKGQPREPQVYTLPPSRDELTKNQVSLTCLVKGFYPSDIAVEWESNGQPENNYKTTPPVLDSDGSFFLYSKLTVDKSRWQQGNVFSCSVMHEALHNHYTQKSLSLSPGK
notes: Homodimeric VHH-human IgG1 Fc xELL fusion; also called CD8a-hzB7v31-Fc-xELL
As to B2, the “EC50 (read off the curve)” value in the test with Cynomolgus monkey CD8a [1] was about 0.05 nM. For the same molecule, the Kd in the test with Cynomolgus monkey CD8a [2] came to 0.0389 nM.

B3: hzB7v10-xELL-Fc (Fc fusion)
chain: EVQLVESGGGEVQPGGSLRLSCAASGFTFDDYAMSWVRQAPGKGLEWVSTITWEGEGTDYAESVKGRFTISRDNAKNTVYLQMSSLRAEDTAVYYCAKGSPELQYDSWGQGTLVTVKPGGDKTHTCPPCPAPGGPSVFLFPPKPKDTLMISRTPEVTCVVVDVSHEDPEVKFNWYVDGVEVHNAKTKPREEQYNSTYRVVSVLTVLHQDWLNGKEYKCKVSNKALPAPIEKTISKAKGQPREPQVYTLPPSRDELTKNQVSLTCLVKGFYPSDIAVEWESNGQPENNYKTTPPVLDSDGSFFLYSKLTVDKSRWQQGNVFSCSVMHEALHNHYTQKSLSLSPGK
notes: Homodimeric VHH-human IgG1 Fc xELL fusion
Regarding B3, the Kd in the test with Human CD8a [3] was determined as 0.106 nM; with Human CD8a [4], 0.085 nM; in the test with Cynomolgus monkey CD8a [5], 0.0973 nM; in the test with Human CD8a [6], 0.565 nM; with Cynomolgus monkey CD8a [7], 0.0737 nM.

The term EC50 (read off the curve) denotes the concentration that produces a half-maximal response. As usually defined, the Kd is the concentration at which binding is half-saturated.
